Test results from patent US20140105889A1 (published 2014).
Substitutions are numbered along the chain they refer to. Names may count otherwise. One block for each binder: values may come before it.

What was measured:
[1] = biological target: T1, human FcγRIa (human, UniProt P12314 16-292, limits assumed); test: SPR (Biacore), antibody captured on chip, FcγR as analyte, HBS-EP+, 25°C;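 further: FcγR binding response divided by the amount of captured antibody, then expressed relative to the reference antibody ×100, with antibodies captured via immobilized Protein A, A/G, L or antigen peptides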
T1 construct: Analyte in solution on Biacore; also called FcgRIa; hFcgRIa
T1 sequence (P12314 16-292 limits assumed): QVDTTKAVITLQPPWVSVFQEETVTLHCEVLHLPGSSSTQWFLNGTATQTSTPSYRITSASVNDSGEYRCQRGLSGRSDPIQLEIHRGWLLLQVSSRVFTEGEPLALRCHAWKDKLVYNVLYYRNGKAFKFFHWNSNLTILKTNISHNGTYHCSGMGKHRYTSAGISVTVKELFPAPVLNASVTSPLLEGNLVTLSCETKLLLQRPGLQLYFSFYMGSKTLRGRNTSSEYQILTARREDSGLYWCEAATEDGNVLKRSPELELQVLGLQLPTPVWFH
Description: (§1) Interaction between each modified antibody and Fcγ receptor prepared in the manner described above was analyzed using the Biacore T100 (GE Healthcare), Biacore T200 (GE Healthcare), Biacore A100 or Biacore 4000. HBS-EP+ (GE Healthcare) was used for the running buffer, and measurements were carried out at 25° C. The chips used were chips in which antigen peptides, Protein A (Thermo Scientific), Protein A/G (Thermo Scientific) or Protein L (ACTIGEN or BioVision) were immobilized on the Series S Sensor Chip CM5 (GE Healthcare) or Series S Sensor Chip CM4 (GE Healthcare) by amine coupling, or chips in which preliminarily biotinylated antigen peptides were allowed to interact and then immobilized on the Series S Sensor Chip SA (certified) (GE Healthcare). The target antibodies were captured on these sensor chips, Fcγ receptor diluted with the running buffer was allowed to interact, followed by measurement of the amount of bound antibody. The amounts bound were compared between antibodies. However, since the amount of Fcγ receptor bound depends on the amount of captured antibody, the values used for comparison were first corrected by dividing the amount of Fcγ receptor bound by the captured amount of each antibody. Through reaction with 10 mM glycine-HCl at pH 1.5, the sensor chips were regenerated by washing off antibody captured on the sensor chips and used repeatedly.
(§2) Binding strength was evaluated according to the following method based on the results of analyzing the interaction with each FcγR. […] That value was then further multiplied by 100, and the resulting value was used as an indicator of relative binding activity to each FcγR.

[2] = biological target: T2, human FcγRIIa(H) (human, UniProt P12318 36-217); test: as above
T2 construct: Analyte in solution on Biacore; also called FcγRIIa type H; FcgRIIaH
T2 sequence: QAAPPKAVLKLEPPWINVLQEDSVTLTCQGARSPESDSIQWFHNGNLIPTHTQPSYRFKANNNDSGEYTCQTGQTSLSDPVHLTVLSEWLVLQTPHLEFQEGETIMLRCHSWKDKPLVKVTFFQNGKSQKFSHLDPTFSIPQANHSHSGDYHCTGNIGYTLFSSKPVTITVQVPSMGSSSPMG
Description: as §1, §2

[3] = biological target: T3, human FcγRIIa(R) (human, UniProt P12318 36-217); test: as above
T3 construct: Analyte in solution on Biacore; also called FcγRIIa type R; FcgRIIaR
T3 chain: T2 sequence with H133R
Description: as §1, §2

[4] = biological target: T4, human FcγRIIIa(F) (human, UniProt P08637 17-208, limits assumed); test: as above
T4 construct: also called FcgRIIIaF; hFcgRIIIa(F)
T4 sequence (P08637 other isoform, or with tags, fused parts or gaps limits assumed): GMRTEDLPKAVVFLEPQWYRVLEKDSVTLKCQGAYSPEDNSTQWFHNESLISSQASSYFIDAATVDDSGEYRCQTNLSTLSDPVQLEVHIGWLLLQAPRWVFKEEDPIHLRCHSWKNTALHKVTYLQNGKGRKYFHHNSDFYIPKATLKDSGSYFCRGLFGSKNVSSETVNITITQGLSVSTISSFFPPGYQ
Description: as §1, §2

[5] = biological target: T5, human FcγRIIb (human, UniProt P31994 43-217, limits assumed); test: as above
T5 construct: Analyte in solution on Biacore; also called FcgRIIb; hFcgRIIb
T5 sequence: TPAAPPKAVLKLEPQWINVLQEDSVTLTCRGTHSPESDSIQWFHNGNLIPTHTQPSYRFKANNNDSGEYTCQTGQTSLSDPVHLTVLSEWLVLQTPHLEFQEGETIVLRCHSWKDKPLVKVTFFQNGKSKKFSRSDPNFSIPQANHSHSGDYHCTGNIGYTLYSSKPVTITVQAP
Description: as §1, §2

[6] = biological target: T6, human FcγRIIIa(F) (human, UniProt P08637 17-208, limits assumed); test: SPR (Biacore), antibody captured on Protein L, human FcgR as analyte, pH 7.4, 25 C; amount normalised to captured antibody
T6 construct: also called hFcgRIIIa(F); allotype F158
T6 sequence (P08637 other isoform, or with tags, fused parts or gaps limits assumed): as the sequence (P08637 other isoform, or with tags, fused parts or gaps limits assumed) above
Description: Binding activity between the antibodies and human FcγRIa, FcγRIIa(H), FcγRIIa(R), FcγRIIb and FcγRIIIa(F) (hereinafter referred to as human FcγRs) was evaluated using the Biacore T100 or T200 (GE Healthcare). The antibodies being tested were captured by Protein L (ACTIGEN) that was immobilized in suitable amounts on the CM4 Sensor Chip (GE Healthcare) by amine coupling. Next, the diluted human FcγRs and a running buffer used as a blank were injected to allow interaction with the antibodies captured on the sensor chip. A buffer consisting of 20 mmol/L ACES, 150 mmol/L NaCl and 0.05% (w/v) Tween 20 (pH 7.4) was used for the running buffer, and this buffer was also used to dilute the human FcγRs. 10 mmol/L glycine-HCl (pH 1.5) was used to regenerate the sensor chip. All measurements were carried out at 25° C.
Binding activity to human FcγRs can be represented by the relative binding activity to human FcγRs. Antibody was captured by Protein L, and the amount of change in a sensorgram before and after the antibody was captured was defined as X1. Next, human FcγRs were allowed to interact with the antibody, and the value obtained by subtracting binding activity of human FcγRs represented as the amount of change in a sensorgram before and after allowing the running buffer to interact with antibody captured by Protein L (ΔA2) from the value obtained by multiplying by 1500 the value obtained by dividing the binding activity of human FcγRs represented as the amount of change in a sensorgram before and after that interaction (ΔA1) by the captured amount (X) of each antibody, was divided by the captured amount of each antibody (X) followed by multiplying by 1500 to obtain the binding activity of the human FcγRs (Y) (Equation 2).

[7] = biological target: T7, human FcγRIIb (human, UniProt P31994 43-217, limits assumed); test: ratio of this variant's SPR KD for FcγRIIaH to its KD for FcγRIIb
T7 construct: also called FcγIIB; hFcgRIIb
T7 sequence: T5 sequence
Excerpt: Furthermore, KD(IIaR)/KD(IIb) and KD(IIaH)/KD(IIb) in the table respectively represent the value obtained by dividing the KD value of each variant for FcγRIIaR by the KD value of each variant for FcγRIIb, and the value obtained by dividing the KD value of each variant for FcγRIIaH by the KD value of each variant for FcγRIIb.

B1: GpH7-B3 variant P329S / GpL16-k0 (antibody, human IgG1)
heavy: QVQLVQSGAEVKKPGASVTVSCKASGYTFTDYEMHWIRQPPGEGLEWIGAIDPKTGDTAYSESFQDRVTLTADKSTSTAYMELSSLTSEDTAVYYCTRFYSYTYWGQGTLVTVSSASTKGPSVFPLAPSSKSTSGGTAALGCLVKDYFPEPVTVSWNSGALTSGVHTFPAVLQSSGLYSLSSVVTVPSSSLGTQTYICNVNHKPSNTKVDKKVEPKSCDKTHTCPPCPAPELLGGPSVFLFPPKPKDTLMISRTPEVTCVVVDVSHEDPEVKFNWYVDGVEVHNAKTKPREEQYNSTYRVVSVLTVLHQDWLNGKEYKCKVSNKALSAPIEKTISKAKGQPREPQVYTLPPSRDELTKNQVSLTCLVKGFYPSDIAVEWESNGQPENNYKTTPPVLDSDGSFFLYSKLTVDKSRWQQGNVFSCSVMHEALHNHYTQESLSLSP
light: DIVMTQSPLSLPVTPGEPASISCQASESLVHSNRNTYLHWYLQKPGQSPQLLIYKVSNRFSGVPDRFSGSGSGTDFTLKISRVEAEDVGVYYCSQNTHVPPTFGQGTKVEIE
notes: Anti-glypican-3 IgG1; constant region B3 = G1d with K439E
- relative binding activity (% of GpH7-B3/GpL16-k0) [1]: 60%
- relative binding activity (% of GpH7-B3/GpL16-k0) [2]: 1%
- relative binding activity (% of GpH7-B3/GpL16-k0) [3]: 0%
- relative binding activity (% of GpH7-B3/GpL16-k0) [4]: 1%
- relative binding activity (% of GpH7-B3/GpL16-k0) [5]: -1%

B2: GpH7-B3 variant I332R / GpL16-k0 (antibody, human IgG1)
heavy: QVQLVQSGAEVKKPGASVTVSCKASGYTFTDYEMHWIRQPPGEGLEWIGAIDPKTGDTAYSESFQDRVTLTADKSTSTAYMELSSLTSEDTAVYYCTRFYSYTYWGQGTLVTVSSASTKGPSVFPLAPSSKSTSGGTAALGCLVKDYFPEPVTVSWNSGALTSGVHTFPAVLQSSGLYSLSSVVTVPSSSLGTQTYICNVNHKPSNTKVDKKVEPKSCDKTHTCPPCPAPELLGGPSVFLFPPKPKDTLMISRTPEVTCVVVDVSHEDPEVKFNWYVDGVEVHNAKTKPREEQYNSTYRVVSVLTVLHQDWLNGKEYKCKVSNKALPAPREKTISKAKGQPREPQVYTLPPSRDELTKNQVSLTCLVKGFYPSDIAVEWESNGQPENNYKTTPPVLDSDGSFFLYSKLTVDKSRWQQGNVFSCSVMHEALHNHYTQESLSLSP
light: B1 light
notes: as for B1
- relative binding activity (% of GpH7-B3/GpL16-k0) [1]: 95%
- relative binding activity (% of GpH7-B3/GpL16-k0) [2]: 70%
- relative binding activity (% of GpH7-B3/GpL16-k0) [3]: 28%
- relative binding activity (% of GpH7-B3/GpL16-k0) [4]: 61%
- relative binding activity (% of GpH7-B3/GpL16-k0) [5]: 23%

B4: GpH7-B3 variant A330S / GpL16-k0 (antibody, human IgG1)
heavy: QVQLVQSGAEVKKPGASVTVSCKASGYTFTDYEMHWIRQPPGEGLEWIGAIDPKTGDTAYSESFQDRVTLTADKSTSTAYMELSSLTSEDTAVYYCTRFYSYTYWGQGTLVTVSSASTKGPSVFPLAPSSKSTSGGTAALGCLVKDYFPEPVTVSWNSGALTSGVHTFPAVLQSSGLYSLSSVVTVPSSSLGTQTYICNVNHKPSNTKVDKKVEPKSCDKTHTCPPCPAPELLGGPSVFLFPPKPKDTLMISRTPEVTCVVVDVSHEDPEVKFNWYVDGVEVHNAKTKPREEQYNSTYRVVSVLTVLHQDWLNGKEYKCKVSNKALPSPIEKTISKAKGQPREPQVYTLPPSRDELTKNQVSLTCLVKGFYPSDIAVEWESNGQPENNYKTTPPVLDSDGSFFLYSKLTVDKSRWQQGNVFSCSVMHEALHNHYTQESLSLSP
light: B1 light
notes: as for B1
- relative binding activity (% of GpH7-B3/GpL16-k0) [1]: 58%
- relative binding activity (% of GpH7-B3/GpL16-k0) [2]: 0%
- relative binding activity (% of GpH7-B3/GpL16-k0) [3]: 0%
- relative binding activity (% of GpH7-B3/GpL16-k0) [4]: 0%
- relative binding activity (% of GpH7-B3/GpL16-k0) [5]: -3%

B5: GpH7-B3 variant P329Y / GpL16-k0 (antibody, human IgG1)
heavy: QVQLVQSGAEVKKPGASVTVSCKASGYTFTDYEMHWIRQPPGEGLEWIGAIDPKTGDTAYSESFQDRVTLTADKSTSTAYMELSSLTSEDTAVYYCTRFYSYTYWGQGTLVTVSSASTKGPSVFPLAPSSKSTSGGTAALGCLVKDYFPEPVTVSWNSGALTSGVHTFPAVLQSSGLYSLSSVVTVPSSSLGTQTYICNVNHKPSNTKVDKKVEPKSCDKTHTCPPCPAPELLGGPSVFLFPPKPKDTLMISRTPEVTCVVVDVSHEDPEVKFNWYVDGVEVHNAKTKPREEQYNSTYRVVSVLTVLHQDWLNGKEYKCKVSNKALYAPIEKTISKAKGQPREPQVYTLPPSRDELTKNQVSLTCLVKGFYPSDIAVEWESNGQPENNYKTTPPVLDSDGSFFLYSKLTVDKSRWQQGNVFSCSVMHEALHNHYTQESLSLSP
light: B1 light
notes: as for B1
- relative binding activity (% of GpH7-B3/GpL16-k0) [1]: 76%
- relative binding activity (% of GpH7-B3/GpL16-k0) [2]: 0%
- relative binding activity (% of GpH7-B3/GpL16-k0) [3]: -1%
- relative binding activity (% of GpH7-B3/GpL16-k0) [4]: 0%
- relative binding activity (% of GpH7-B3/GpL16-k0) [5]: -3%

B10: GpH7-B3 variant P329E / GpL16-k0 (antibody, human IgG1)
heavy: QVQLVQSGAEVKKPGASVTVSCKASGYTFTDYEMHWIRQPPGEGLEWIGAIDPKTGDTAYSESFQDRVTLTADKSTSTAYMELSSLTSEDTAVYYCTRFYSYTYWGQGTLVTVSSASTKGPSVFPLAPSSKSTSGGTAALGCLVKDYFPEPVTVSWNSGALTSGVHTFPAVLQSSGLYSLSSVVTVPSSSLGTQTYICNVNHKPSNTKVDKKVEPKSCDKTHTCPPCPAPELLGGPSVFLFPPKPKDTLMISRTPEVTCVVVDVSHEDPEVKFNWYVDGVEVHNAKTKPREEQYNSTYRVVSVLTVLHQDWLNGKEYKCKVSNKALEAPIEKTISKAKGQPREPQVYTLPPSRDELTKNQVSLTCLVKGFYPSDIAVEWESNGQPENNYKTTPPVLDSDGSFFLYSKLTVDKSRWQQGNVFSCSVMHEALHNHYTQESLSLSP
light: B1 light
notes: as for B1
- relative binding activity (% of GpH7-B3/GpL16-k0) [1]: 33%
- relative binding activity (% of GpH7-B3/GpL16-k0) [2]: 0%
- relative binding activity (% of GpH7-B3/GpL16-k0) [3]: -1%
- relative binding activity (% of GpH7-B3/GpL16-k0) [4]: -1%
- relative binding activity (% of GpH7-B3/GpL16-k0) [5]: -2%

B13: antibody containing VH3-IgG1-F938 for the heavy chain and L(WT)-CK for the light chain (antibody)
heavy: QVQLQESGPGLVKPSETLSLTCAVSGHSISHDHAWSWVRQPPGEGLEWIGFISYSGITNYNPSLQGRVTISRDNSKNTLYLQMNSLRAEDTAVYYCARSLARTTAMDYWGEGTLVTVSSASTKGPSVFPLAPSSKSTSGGTAALGCLVKDYFPEPVTVSWNSGALTSGVHTFPAVLQSSGLYSLSSVVTVPSSSLGTQTYICNVNHKPSNTKVDKKVEPKSCDKTHTCPPCPAPELKGGPKVFLFPPKPKDTLYISRTPEVTCVVVDVSHEDPEVKFNWYVDGVEVHNAKTKPREEQYNSTYRVVSVLTVLHQDWLNGKEYKCKVSNKALPAPIEKTISKAKGQPREPQVYTLPPSRDELTKNQVSLTCLVKGFYPSDIAVEWESNGQPENNYKTTPPVLDSDGSFFLYSKLTVDKSRWQQGNVFSCSVMHEALHYHVTQKSLSLSP
light: not shown
- BINDING AMOUNT (RU) [6]: -0.34 RU

B14: antibody containing VH3-IgG1-F1317 for the heavy chain and L(WT)-CK for the light chain (antibody)
heavy: B13 heavy with K237L, P331K
light: not shown
- BINDING AMOUNT (RU) [6]: -0.94 RU

B20: antibody containing VH3-IgG1-F947 for the heavy chain and L(WT)-CK for the light chain (antibody)
heavy: B13 heavy with K237L, K241S, T252V, T309Q, V310P, Q313A
light: not shown
- BINDING AMOUNT (RU) [6]: 105 RU

B22: IL6R-BP087/IL6R-L (antibody, human IgG1)
heavy: B13 heavy with L236Y, K237L, P240D, K241S, Y254M, A332K, Y436N, V438Y, K441E
light: DIQMTQSPSSLSASVGDRVTITCRASQDISSYLNWYQQKPGKAPKLLIYYTSRLHSGVPSRFSGSGSGTDFTFTISSLQPEDIATYYCQQGNTLPYTFGQGTKVEIK
notes: copies: 2 + 2
- KD (IIaH)/KD (IIb) [7]: 34.7

B24: antibody containing VH3-IgG1-F1333 for the heavy chain and L(WT)-CK for the light chain (antibody)
heavy: B13 heavy with K237R, G238R
light: not shown
- BINDING AMOUNT (RU) [6]: -1.01 RU

Results, then the binder that gave them:

- relative binding activity (% of GpH7-B3/GpL16-k0) [1]: 92%
- relative binding activity (% of GpH7-B3/GpL16-k0) [2]: 1%
- relative binding activity (% of GpH7-B3/GpL16-k0) [3]: 1%
- relative binding activity (% of GpH7-B3/GpL16-k0) [4]: 4%
- relative binding activity (% of GpH7-B3/GpL16-k0) [5]: 0%
B3: GpH7-B3 variant P329G / GpL16-k0 (antibody, human IgG1)
heavy: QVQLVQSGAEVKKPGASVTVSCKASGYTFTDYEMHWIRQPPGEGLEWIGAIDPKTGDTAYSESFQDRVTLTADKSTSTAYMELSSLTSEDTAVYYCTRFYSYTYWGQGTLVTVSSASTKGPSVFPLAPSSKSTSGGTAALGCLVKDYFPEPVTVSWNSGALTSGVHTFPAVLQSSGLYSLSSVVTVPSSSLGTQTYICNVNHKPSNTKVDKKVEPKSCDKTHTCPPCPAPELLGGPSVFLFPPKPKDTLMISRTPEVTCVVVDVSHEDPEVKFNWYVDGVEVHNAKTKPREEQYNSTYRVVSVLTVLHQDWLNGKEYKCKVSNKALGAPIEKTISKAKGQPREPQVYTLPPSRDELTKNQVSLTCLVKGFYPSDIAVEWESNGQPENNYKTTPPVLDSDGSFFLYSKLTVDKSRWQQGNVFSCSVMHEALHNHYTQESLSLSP
light: B1 light
notes: as for B1

- relative binding activity (% of GpH7-B3/GpL16-k0) [1]: 87%
- relative binding activity (% of GpH7-B3/GpL16-k0) [2]: 25%
- relative binding activity (% of GpH7-B3/GpL16-k0) [3]: 42%
- relative binding activity (% of GpH7-B3/GpL16-k0) [4]: 56%
- relative binding activity (% of GpH7-B3/GpL16-k0) [5]: 39%
B6: GpH7-B3 variant A330P / GpL16-k0 (antibody, human IgG1)
heavy: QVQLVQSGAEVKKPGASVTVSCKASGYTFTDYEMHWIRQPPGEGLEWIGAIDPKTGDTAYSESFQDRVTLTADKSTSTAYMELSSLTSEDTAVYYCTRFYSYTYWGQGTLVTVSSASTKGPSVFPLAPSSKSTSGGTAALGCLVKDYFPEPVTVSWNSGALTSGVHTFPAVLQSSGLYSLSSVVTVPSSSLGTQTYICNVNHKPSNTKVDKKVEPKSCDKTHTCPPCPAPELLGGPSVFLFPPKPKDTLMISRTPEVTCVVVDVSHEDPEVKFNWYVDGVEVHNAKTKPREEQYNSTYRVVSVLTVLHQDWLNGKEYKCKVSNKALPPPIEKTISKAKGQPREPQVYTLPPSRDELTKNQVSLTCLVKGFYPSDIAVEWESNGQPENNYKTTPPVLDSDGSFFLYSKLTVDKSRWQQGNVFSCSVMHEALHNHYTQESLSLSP
light: B1 light
notes: as for B1

- relative binding activity (% of GpH7-B3/GpL16-k0) [1]: 23%
- relative binding activity (% of GpH7-B3/GpL16-k0) [2]: -1%
- relative binding activity (% of GpH7-B3/GpL16-k0) [3]: -1%
- relative binding activity (% of GpH7-B3/GpL16-k0) [4]: -1%
- relative binding activity (% of GpH7-B3/GpL16-k0) [5]: -2%
B7: GpH7-B3 variant P329D / GpL16-k0 (antibody, human IgG1)
heavy: not shown
light: B1 light
notes: as for B1

- relative binding activity (% of GpH7-B3/GpL16-k0) [1]: 98%
- relative binding activity (% of GpH7-B3/GpL16-k0) [2]: 58%
- relative binding activity (% of GpH7-B3/GpL16-k0) [3]: 72%
- relative binding activity (% of GpH7-B3/GpL16-k0) [4]: 34%
- relative binding activity (% of GpH7-B3/GpL16-k0) [5]: 63%
B8: GpH7-B3 variant P331K / GpL16-k0 (antibody, human IgG1)
heavy: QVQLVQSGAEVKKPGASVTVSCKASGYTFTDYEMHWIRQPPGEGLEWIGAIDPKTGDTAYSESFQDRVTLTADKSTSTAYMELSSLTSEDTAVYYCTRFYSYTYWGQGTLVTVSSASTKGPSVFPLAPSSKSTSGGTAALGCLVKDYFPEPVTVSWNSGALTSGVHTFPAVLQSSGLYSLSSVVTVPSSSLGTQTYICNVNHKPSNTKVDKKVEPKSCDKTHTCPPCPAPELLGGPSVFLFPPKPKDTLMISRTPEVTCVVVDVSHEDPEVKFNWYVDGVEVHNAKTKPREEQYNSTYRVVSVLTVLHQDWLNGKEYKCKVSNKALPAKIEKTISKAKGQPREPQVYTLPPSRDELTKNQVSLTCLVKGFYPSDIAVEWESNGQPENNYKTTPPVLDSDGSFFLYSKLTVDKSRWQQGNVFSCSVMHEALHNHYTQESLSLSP
light: B1 light
notes: as for B1

- relative binding activity (% of GpH7-B3/GpL16-k0) [1]: 100%
- relative binding activity (% of GpH7-B3/GpL16-k0) [2]: 26%
- relative binding activity (% of GpH7-B3/GpL16-k0) [3]: 34%
- relative binding activity (% of GpH7-B3/GpL16-k0) [4]: 14%
- relative binding activity (% of GpH7-B3/GpL16-k0) [5]: 41%
B9: GpH7-B3 variant I332P / GpL16-k0 (antibody, human IgG1)
heavy: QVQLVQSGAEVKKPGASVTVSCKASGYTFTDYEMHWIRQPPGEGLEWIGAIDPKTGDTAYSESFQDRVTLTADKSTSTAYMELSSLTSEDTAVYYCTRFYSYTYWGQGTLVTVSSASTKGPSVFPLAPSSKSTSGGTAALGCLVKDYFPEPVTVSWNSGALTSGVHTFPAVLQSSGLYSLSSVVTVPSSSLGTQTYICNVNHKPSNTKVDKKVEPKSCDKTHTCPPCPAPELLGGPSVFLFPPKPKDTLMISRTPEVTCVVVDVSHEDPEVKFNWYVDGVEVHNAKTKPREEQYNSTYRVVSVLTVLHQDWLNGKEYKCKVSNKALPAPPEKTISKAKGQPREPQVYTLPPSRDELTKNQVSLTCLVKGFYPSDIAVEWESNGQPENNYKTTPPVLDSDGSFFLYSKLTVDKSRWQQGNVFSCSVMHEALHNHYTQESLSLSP
light: B1 light
notes: as for B1

- relative binding activity (% of GpH7-B3/GpL16-k0) [1]: 77%
- relative binding activity (% of GpH7-B3/GpL16-k0) [2]: 59%
- relative binding activity (% of GpH7-B3/GpL16-k0) [3]: 12%
- relative binding activity (% of GpH7-B3/GpL16-k0) [5]: 27%
B11: GpH7-B3 variant I332K / GpL16-k0 (antibody, human IgG1)
heavy: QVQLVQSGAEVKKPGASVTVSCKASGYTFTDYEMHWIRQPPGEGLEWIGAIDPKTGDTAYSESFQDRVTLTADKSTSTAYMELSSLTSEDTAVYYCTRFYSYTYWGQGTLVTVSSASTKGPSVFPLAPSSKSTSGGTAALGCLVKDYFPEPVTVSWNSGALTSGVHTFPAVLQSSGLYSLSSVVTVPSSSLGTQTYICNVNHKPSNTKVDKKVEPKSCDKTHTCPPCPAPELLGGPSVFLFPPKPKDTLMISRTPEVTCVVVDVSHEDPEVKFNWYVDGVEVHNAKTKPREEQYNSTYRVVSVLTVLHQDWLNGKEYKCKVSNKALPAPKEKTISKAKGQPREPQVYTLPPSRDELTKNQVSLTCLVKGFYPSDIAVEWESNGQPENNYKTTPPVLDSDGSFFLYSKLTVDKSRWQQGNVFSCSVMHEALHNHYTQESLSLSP
light: B1 light
notes: as for B1

- relative binding activity (% of GpH7-B3/GpL16-k0) [1]: 94%
- relative binding activity (% of GpH7-B3/GpL16-k0) [2]: 0%
- relative binding activity (% of GpH7-B3/GpL16-k0) [3]: 1%
- relative binding activity (% of GpH7-B3/GpL16-k0) [4]: 0%
- relative binding activity (% of GpH7-B3/GpL16-k0) [5]: 0%
B12: GpH7-B3 variant P329W / GpL16-k0 (antibody, human IgG1)
heavy: not shown
light: B1 light
notes: as for B1

- BINDING AMOUNT (RU) [6]: -0.54 RU
B15: antibody containing VH3-IgG1-F1325 for the heavy chain and L(WT)-CK for the light chain (antibody)
heavy: B13 heavy with L236A, K237A, K241S, N299A
light: not shown

- BINDING AMOUNT (RU) [6]: -0.26 RU
B16: antibody containing VH3-IgG1-F1316 for the heavy chain and L(WT)-CK for the light chain (antibody)
heavy: B13 heavy with K237L, G239R
light: not shown

- BINDING AMOUNT (RU) [6]: -1.85 RU
B17: antibody containing VH3-IgG1-F1327 for the heavy chain and L(WT)-CK for the light chain (antibody)
heavy: B13 heavy with L236A, K237A, K241S, T252V, N299A, T309Q, V310P, Q313A
light: not shown

- BINDING AMOUNT (RU) [6]: -0.33 RU
B18: antibody containing VH3-IgG1-F1315 for the heavy chain and L(WT)-CK for the light chain (antibody)
heavy: B13 heavy with K237L, G239K
light: not shown

- BINDING AMOUNT (RU) [6]: -0.68 RU
B19: antibody containing VH3-IgG1-F1009 for the heavy chain and L(WT)-CK for the light chain (antibody)
heavy: B13 heavy with K237R, T252V, T309Q, V310P, Q313A
light: not shown

- BINDING AMOUNT (RU) [6]: -1.03 RU
B21: antibody containing VH3-IgG1-F1318 for the heavy chain and L(WT)-CK for the light chain (antibody)
heavy: B13 heavy with K237L, P331R
light: not shown

- BINDING AMOUNT (RU) [6]: 0.51 RU
B23: antibody containing VH3-IgG1-F939 for the heavy chain and L(WT)-CK for the light chain (antibody)
heavy: B13 heavy with K237R
light: not shown
